Data on 32 variants can be found in the RNAGym collection of RNA variant scans (doi:10.7554/elife.80360).

The labels stand for the following.
B1: HDV Ribozyme (parent)
chain: GGCCGGCAUGGUCCCAGCCUCCUCGCUGGCGCCGGCUGGGCAACAUUCCGAGGGGACCGUCCCCUCGGUAAUGGCGAAUGGGACCCA

In this data set the parent is B1. Briefly: self-cleavage, relative activity (ratio to wild type); higher = more cleavage; co-transcriptional.
On to GGCCGGCAUGAUCCCAGCCUCCUCGCUGGCGCCGGCUGGGCAACAUUCCGAGGGGACCGUCCCCUCGCUAAUGGCGAAUGGGACCCA, for which the self-cleavage was 0.256. As for GGCCGGCAUGGUCCCAGCCUCUUUGCUGGCGCCGGCUGGGCAACAUUCCGAGGGGACCGUCCCCUCGGUAAUGGCGAAUGGGACCCA, the figure is 0.22; as for GGCCGGCAUGGUCCCAGCCUCCUCGCUGGCGCCUUCUGGGCAACAUUCCGAGGGGACCGUCCCCUCGGUAAUGGCGAAUGGGACCCA, 0.175; as for GGCCGGCAUGGUCCCAGCCUCCUCGCUGGCGCCGGCUUGGCAACAUUCCGAGGGGACCGUCCCCUCGGUAAUGGCGAAUGGGAGCCA, 0.115. Then GGCCGGCAGGGUCCCAGCCUCCUCGCUGGCGCCGGCUGGGCAACAUUCCGAGGGGACCGUCCCCUCGGUAAUGGCGAAUGGGACCCC, with 0.969; and GGCCGGCAUGGUCCCAGCCUCCUCGCUGGCGCCGGCUGGGCGACAUUCCGAGGGGACCGUGCCCUCGGUAAUGGCGAAUGGGACCCA, with 0.831; and GGCCGGCAUGGUCCCAGCCUCCUCGCUGGCGCCGGUUGGGCCACAUUCCGAGGGGACCGUCCCCUCGGUAAUGGCGAAUGGGACCCA, with 0.155. Then GGCCGGCAUGGUCCCAGCCUCCUCGCUGGCGCCGGCUGGGCAACAUUCAGACGGGACCGUCCCCUCGGUAAUGGCGAAUGGGACCCA, with 0.573. GGCCGGCAUGGUCCCAGCCUCCUCGCUGGCGCCGGCUGGGCAACCUUCCCAGGGGACCGUCCCCUCGGUAAUGGCGAAUGGGACCCA: the self-cleavage is 0.504. Regarding GGCCGGCAUGGUCCUAGCCUCCUCGCUGGCGCCGGCUGGGCAACAUUCCGAGGGGACCGUCCCCUCGGUAAUGGCGAAUGGGCCCCA, the self-cleavage stood at 0.65. Then GGUCGGCAUGGUCCCAGCCUCCUCGCUGGCGCCGGCUGGGCAACAUUCCGAGGGGACCGUCCCCUUGGUAAUGGCGAAUGGGACCCA, with 0.753. As for GGCCGGCAUGGUCCCAGCCUCCUCGCUGGCGCCGGCUGGGCACCAUUCCGAGGGGACCGUCCCCUCGGUAAUGGCGUAUGGGACCCA, the figure is 0; as for GGCCGGCAUGGUCCCAGCCUCCUCGCUGGCGCCAGCUGGGCAACAUUCCGAGGGGACCGUCCCCUUGGUAAUGGCGAAUGGGACCCA, 0.0665. As to GGCCGGUAUGGUCCCAGCCUCCUCGCUGGCGCCGGUUGGGCAACAUUCCGAGGGGACCGUCCCCUCGGUAAUGGCGAAUGGGACCCA, the self-cleavage worked out at 0.399.

With GGCCGGCAUGGUCCCGGCCUCCUCGCUGGCGCCGGCUGGGCAACAUUCCGAGGGAACCGUCCCCUCGGUAAUGGCGAAUGGGACCCA, the self-cleavage came to 0.943. Then GGCCGGCAUGGUCCCAGCCUCCUCGCUGGCGCCGGCUGGCCAACAUUCCGGGGGGACCGUCCCCUCGGUAAUGGCGAAUGGGACCCA, with 0.288; and GGCCGGCAUGGUCCUAGCCUCCUCGCUGGCGCCGGCUGGGCAACAUUCCGAGGGGACCGUCCCCUCGGUAAUGGCGAAUGGGAGCCA, with 0.635; and GGCCGGCAUGGUCCCAGCCUCCUCGCUGGCGCCGGCUGGUCGACAUUCCGAGGGGACCGUCCCCUCGGUAAUGGCGAAUGGGACCCA, with 0.306. For the variant GGCCGGCAUGGUCCCAGCCUCCUCGCUGGCGCCGGCUGGGCAACAUACCGAGGGGACCGUCCCCUCGGUAAUGGCGAACGGGACCCA, the self-cleavage amounted to 0.312. On to GGCCGGCAUGGUCCCAGCCUCCUCGCCGGCGCCGGCUGGGCAACAUUCCGAGGGGACCGUCCCCUCGGUAAUGGGGAAUGGGACCCA, for which the self-cleavage came to 0. Then GGCCGGCAUGGUCCCAGCCUCCUCGCUGGCGCCGCCUGGGCAACAUUCCGAGGGGAACGUCCCCUCGGUAAUGGCGAAUGGGACCCA, with 0.302; and GGCCGGCAUGGUCCCAGCCUCCUCGCUGGCGCCGGCUGGGCAACAUUCCGAGGGGAACGUCCCCUCGGUAAUGGCGAAUGGGACACA, with 1.05; and GGCCGGCAUGGUCCCAGCCUCAUCGCUGGCGCCGGCUGGGCAACAUUCCGAGGGGACCGUCCCCUCGGUAAUGGAGAAUGGGACCCA, with 0.0308. As for GGCCGGCAUGGUCCCAGCCUCCUCGCUGGAGCCGGCUGGGCAACAUUCCGAGGGGACCGUCCCCUCGCUAAUGGCGAAUGGGACCCA, the figure is 0.308; as for GGCCGGCAUGGUCCCAGCCUCAUCGCUGGCGCCGGCUGGUCAACAUUCCGAGGGGACCGUCCCCUCGGUAAUGGCGAAUGGGACCCA, 0.0978; as for GCCCGGCAUGGUCCCAGCCUCCUCGCUGGCGCCGGCUGGGCAACAUUCCGAGGGGACCGUCCCCUCGGUACUGGCGAAUGGGACCCA, 0.0723. Regarding GGCCGGCAUGGUCCCAGCCUCCCCGCUGGCGCCGGCAGGGCAACAUUCCGAGGGGACCGUCCCCUCGGUAAUGGCGAAUGGGACCCA, the self-cleavage was determined as 0.0536. As for GGCCGGCAUGGUCCGUGCCUCCUCGCUGGCGCCGGCUGGGCAACAUUCCGAGGGGACCGUCCCCUCGGUAAUGGCGAAUGGGACCCA, the figure is 0.795; as for GACCGGCAUGGUCCCAGCCUCCUCGCUGGCGCCGGCUGGGCAACAUUCCGAGGGGACAGUCCCCUCGGUAAUGGCGAAUGGGACCCA, 0.234. Then GGCCGGCAUGGUGCCAGCCUCCUCGCUGGCUCCGGCUGGGCAACAUUCCGAGGGGACCGUCCCCUCGGUAAUGGCGAAUGGGACCCA, with 0.0405; and GACCGGCAUGGUCCCAGCCUCCUCGCUGGCGCCGGCUGGGCAACAUUCCGAGGGGACCGUCCUCUCGGUAAUGGCGAAUGGGACCCA, with 0.162.

GGACGGCAUGGUCCCAGCCUCCUCGCUGGCGCCGGCUGGGCAACAUUCCGAGGGGACCGUCCCCUCGCUAAUGGCGAAUGGGACCCA: the self-cleavage was 0.363.
